From the Immune Epitope Database (IEDB) come the findings set out here.

For one test, the target named is HLA-B*39:01. The test can be described thus: IEDB peptide-MHC binding, purified MHC/competitive/fluorescence; filed as Kd, often an IC50 or EC50 that approximates it; ≥ and ≤ were set here for values at or beyond the usual limits of such assays.
The target in the next test is HLA-C*15:02. The test can be described thus: IEDB peptide-MHC binding, purified MHC/direct/fluorescence; filed as Kd, often an IC50 or EC50 that approximates it; ≥ and ≤ were set here for values at or beyond the usual limits of such assays.
Test [1] concerns the target HLA-B*08:01. The test can be described thus: IEDB peptide-MHC binding, purified MHC/competitive/fluorescence; ≥ and ≤ were set here for values at or beyond the usual limits of such assays.
Test [2] deals with HLA-A*02:01. Described as above. Conditions: source organism: Zaire ebolavirus.
Test [3] concerns the target HLA-B*07:02. Described as above.
The target of a further test is HLA-A*24:02. Described as above. The note with it: source organism: Zaire ebolavirus.
Test [4] concerns the target HLA-B*15:01. The description is as above.
In test [5] the target is HLA-A*03:01. The description is as above.
The target in test [6] is HLA-B*58:01. In words: IEDB peptide-MHC binding, purified MHC/competitive/fluorescence; filed as Kd, often an IC50 or EC50 that approximates it; ≥ and ≤ were set here for values at or beyond the usual limits of such assays.
Test [7] concerns the target HLA-A*24:03. The test is described as above.
The next test concerns the target HLA-B*51:01. The test is described as above.
The target in test [8] is HLA-A*11:01. The test can be described thus: IEDB peptide-MHC binding, purified MHC/competitive/fluorescence; ≥ and ≤ were set here for values at or beyond the usual limits of such assays. Conditions: source organism: Zaire ebolavirus.
The target in test [9] is HLA-B*46:01. In words: IEDB peptide-MHC binding, purified MHC/direct/fluorescence; filed as Kd, often an IC50 or EC50 that approximates it; ≥ and ≤ were set here for values at or beyond the usual limits of such assays. The note with it: source organism: Giardia lamblia ATCC 50803.
For test [10], the target named is HLA-B*07:02. Described as above.
Test [11] has as its target HLA-B*15:01. Described as above.
For another test, the target named is HLA-C*05:01. The description is as above.
For test [12], the target named is HLA-A*01:01. The test can be described thus: IEDB peptide-MHC binding, purified MHC/competitive/fluorescence; filed as Kd, often an IC50 or EC50 that approximates it; ≥ and ≤ were set here for values at or beyond the usual limits of such assays. Conditions: source organism: Escherichia coli B171.
The target in test [13] is HLA-B*15:01. The description is as above.
The target of test [14] is HLA-A*03:01. The test is described as above. The note with it: source organism: Escherichia coli B171.
For a further test, the target named is HLA-B*57:01. The description is as above. Conditions: source organism: Homo sapiens.
Test [15] has as its target HLA-B*46:01. The description is as above. The note with it: source organism: Homo sapiens.
The next test concerns the target HLA-B*18:01. The test is described as above. Conditions: source organism: Homo sapiens.
The next test addresses HLA-B*27:03. The test is described as above. The note with it: source organism: Homo sapiens.
The target of test [16] is HLA-A*69:01. Described as above. The note with it: source organism: Homo sapiens.
In test [17] the target is HLA-A*26:01. The test is described as above. Conditions: source organism: Homo sapiens.
Test [18] concerns the target HLA-A*01:01. The test can be described thus: IEDB peptide-MHC binding, purified MHC/direct/fluorescence; filed as Kd, often an IC50 or EC50 that approximates it; ≥ and ≤ were set here for values at or beyond the usual limits of such assays.
Test [19] has as its target HLA-A*11:01. The test is described as above. The note with it: source organism: Pseudomonas aeruginosa.
Test [20] concerns the target HLA-B*58:01. The description is as above. Conditions: source organism: Pseudomonas aeruginosa UCBPP-PA14.
Another test addresses HLA-B*27:05. Described as above. The note with it: source organism: Pseudomonas aeruginosa UCBPP-PA14.
In test [21] the target is HLA-B*08:01. The test is described as above. The note with it: source organism: Pseudomonas aeruginosa.
In test [22] the target is HLA-A*02:01. The description is as above. Conditions: source organism: Pseudomonas aeruginosa.
For test [23], the target named is HLA-A*24:03. Described as above. The note with it: source organism: Pseudomonas aeruginosa UCBPP-PA14.
Another test has as its target HLA-A*30:01. The test is described as above. Conditions: source organism: Pseudomonas aeruginosa.
A further test deals with HLA-A*31:01. Described as above. The note with it: source organism: Pseudomonas aeruginosa.
In another test the target is HLA-B*40:01. Described as above. The note with it: source organism: Pseudomonas aeruginosa UCBPP-PA14.
The target of test [24] is HLA-A*03:01. The test is described as above. Conditions: source organism: Pseudomonas aeruginosa.
Test [25] addresses HLA-A*69:01. Described as above. Conditions: source organism: Pseudomonas aeruginosa UCBPP-PA14.
Test [26] addresses HLA-A*26:01. Described as above. Conditions: source organism: Pseudomonas aeruginosa UCBPP-PA14.
[27] abbreviates: source organism: Escherichia coli str. K-12 substr. MG1655.
The mark [28] stands for this setting: source organism: Zaire ebolavirus.
Where [29] appears, read: source organism: Vaccinia virus Copenhagen.
The mark [30] stands for this setting: source organism: Bacillus anthracis str. A2012.
The mark [31] stands for this setting: source organism: Giardia lamblia ATCC 50803.
[32] abbreviates: source organism: Escherichia coli B171.
The mark [33] stands for this setting: source organism: Pseudomonas aeruginosa UCBPP-PA14.

Where only a bound is given, the exact number is not on record here.

As for AKIEAPLLL, the Kd – broadly, the free concentration of one partner at which half of the binding sites on the other are occupied at equilibrium, for simple one-to-one binding – with HLA-B*39:01 (setting [27]) is 0.0075 µM; in the test with HLA-C*15:02 (setting [27]) it was no less than 20 µM.
With EKVQRQIQV, in the test with HLA-B*08:01 [1] (setting [28]), the IC50 (usually the concentration needed to halve the response being measured) was no less than 181 µM.
In the case of EVNSFKAAL, the IC50 is no less than 85.9 µM with HLA-B*08:01 [1] (setting [28]), no less than 236 µM with HLA-A*02:01 [2], no less than 139 µM in the test with HLA-B*07:02 [3] (setting [28]) and 33.2 µM with HLA-A*24:02.
For FINKLNGAM, the results for the IC50 in the test with HLA-B*08:01 [1] (setting [29]) and in the test with HLA-B*15:01 [4] (setting [29]) were no less than 138 µM and 27.6 µM, respectively.
For the sequence IIAVARKHH, the IC50 with HLA-B*07:02 [3] (source organism: Variola virus) worked out at 59.7 µM; in the test with HLA-B*15:01 [4] (source organism: Variola virus), 27.2 µM; with HLA-A*03:01 [5] (source organism: Variola virus), 27.7 µM.
IQARPCDRW: the Kd with HLA-B*58:01 [6] (source organism: Escherichia coli 536) came to 0.19 µM.
Take KWGKKIILF: in the test with HLA-A*24:03 [7] (source organism: Bacillus anthracis str. A0488), the Kd is 0.0003 µM.
For LAWQRTLKW, the Kd with HLA-B*58:01 [6] (setting [27]) is 0.0083 µM; in the test with HLA-B*51:01 (setting [27]) it was no less than 20 µM.
With LHPLARTAK, the IC50 with HLA-A*11:01 [8] is 15.4 µM; with HLA-B*08:01 [1] (setting [28]) it was no less than 277 µM; with HLA-B*07:02 [3] (setting [28]) it was no less than 158 µM; in the test with HLA-A*03:01 [5] (setting [28]), 34.6 µM.
Consider MASENSSAM, for which the results for the half-inhibitory concentration (IC50) in the test with HLA-A*02:01 [2], with HLA-B*07:02 [3] (setting [28]) and with HLA-B*15:01 [4] (setting [28]) were 12.1 µM, 28.4 µM and 21.9 µM, respectively.
In turn, NAFHHPSAV registered a Kd with HLA-C*15:02 (source organism: Homo sapiens) of 0.695 µM.
Consider NTPVYKLDI, for which the IC50 with HLA-B*07:02 [3] (setting [28]) was no less than 119 µM.
Take RAFSLYMTL: the Kd in the test with HLA-A*24:03 [7] (setting [30]) was 0.0586 µM; in the test with HLA-C*15:02 (setting [30]) it was 0.466 µM.
Turning to TAKVKNEVN, the 50% inhibitory concentration (IC50) with HLA-B*08:01 [1] (setting [28]) is no less than 365 µM.
With VGHMMVIFR, the IC50 is 0.196 µM in the test with HLA-A*11:01 [8]; no less than 185 µM with HLA-B*08:01 [1] (setting [28]); 3.68 µM with HLA-A*02:01 [2]; no less than 271 µM in the test with HLA-A*24:02; no less than 1340 µM with HLA-B*15:01 [4] (setting [28]); no less than 218 µM in the test with HLA-A*03:01 [5] (setting [28]).
Regarding VLASGPGPF, the Kd in the test with HLA-B*46:01 [9] was no less than 20 µM; in the test with HLA-B*07:02 [10] (setting [31]), 9.38 µM; with HLA-B*15:01 [11] (setting [31]), 0.0184 µM; with HLA-C*05:01 (setting [31]) it was no less than 20 µM.
In the case of VLSDINAVF, the Kd was determined as 0.679 µM with HLA-B*15:01 [11] (source organism: Mycobacterium tuberculosis C) and 0.009 µM in the test with HLA-C*05:01 (source organism: Mycobacterium tuberculosis H37Ra).
For VSALRLFNY, the equilibrium dissociation constant (Kd) with HLA-A*01:01 [12] is 0.787 µM; in the test with HLA-B*58:01 [6] (setting [32]), 1.02 µM; in the test with HLA-B*15:01 [13] (setting [32]) it was 0.796 µM; with HLA-A*03:01 [14], no less than 20 µM.
For VSSFQDILL, the Kd with HLA-B*58:01 [6] (source organism: Influenza A virus (A/X-31(H3N2))) came to 0.687 µM.
As to VTDTALAYF, the Kd with HLA-B*57:01, with HLA-B*46:01 [15], in the test with HLA-B*18:01, with HLA-B*27:03, with HLA-B*39:01 (source organism: Homo sapiens) and with HLA-B*51:01 (source organism: Homo sapiens) was no less than 20 µM throughout. The Kd with HLA-B*15:01 [13] (source organism: Homo sapiens) is no less than 20 µM; with HLA-A*69:01 [16] it was no less than 20 µM; with HLA-A*26:01 [17], no less than 20 µM; with HLA-A*01:01 [18] (source organism: Homo sapiens) it was 0.0009 µM; in the test with HLA-C*05:01 (source organism: Homo sapiens), 0.005 µM.
In the case of YQQLREAAT, the IC50 in the test with HLA-B*08:01 [1] (setting [28]) is no less than 183 µM; in the test with HLA-A*02:01 [2], 29.7 µM.
YTFCRLNVK: the dissociation constant Kd was 0.0487 µM with HLA-A*11:01 [19]; 2.36 µM with HLA-A*01:01 [18] (source organism: Pseudomonas aeruginosa); no less than 20 µM with HLA-B*58:01 [20]; no less than 20 µM with HLA-B*27:05; 10.6 µM in the test with HLA-B*08:01 [21]; 11.5 µM in the test with HLA-A*02:01 [22]. Also, the Kd is no less than 20 µM with HLA-A*24:03 [23]; no less than 20 µM with HLA-B*07:02 [10] (setting [33]); 0.0138 µM in the test with HLA-A*30:01; 0.265 µM with HLA-A*31:01; no less than 20 µM with HLA-B*15:01 [11] (setting [33]); no less than 20 µM with HLA-B*40:01. For the same sequence, the results for the Kd in the test with HLA-A*03:01 [24], with HLA-A*69:01 [25] and with HLA-A*26:01 [26] were 0.213 µM, no less than 20 µM and no less than 20 µM, respectively.
